Assay results published in IntAct's records for PubMed 25946333.

Legend:
nemp1_mouse Nemp1 [1] = target: T1, nemp1_mouse Nemp1 (UniProt Q6ZQE4)
T1 sequence: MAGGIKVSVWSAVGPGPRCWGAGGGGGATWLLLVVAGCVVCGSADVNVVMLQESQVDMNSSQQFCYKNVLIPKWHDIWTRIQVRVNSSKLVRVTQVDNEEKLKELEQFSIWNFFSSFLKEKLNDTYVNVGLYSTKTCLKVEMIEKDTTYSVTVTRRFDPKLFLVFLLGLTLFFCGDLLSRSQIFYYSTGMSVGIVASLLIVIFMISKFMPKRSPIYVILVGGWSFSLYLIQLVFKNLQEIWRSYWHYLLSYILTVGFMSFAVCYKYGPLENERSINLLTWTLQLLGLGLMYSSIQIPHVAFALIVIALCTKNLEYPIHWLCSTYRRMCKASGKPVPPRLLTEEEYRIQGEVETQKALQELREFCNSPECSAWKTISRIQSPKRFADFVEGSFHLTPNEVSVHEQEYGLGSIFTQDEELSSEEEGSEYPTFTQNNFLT

nemp1_mouse Nemp1 [2] = target: T1, nemp1_mouse Nemp1; remark: listed apart in the source

Substance	effect of a mutation on the interaction (nemp1_mouse Nemp1 [1])	effect of a mutation on the interaction (nemp1_mouse Nemp1 [2])
GTP-binding nuclear protein Ran (Mus musculus) (from UniProt P62827) Q69L	with no effect	–
GTP-binding nuclear protein Ran (Mus musculus) (from UniProt P62827) T24N	disrupting interaction strength	decreasing interaction strength
GTP-binding nuclear protein Ran (Mus musculus) (from UniProt P62827) T42A	disrupting interaction strength	–
